Experiment [1] deals with IL-8A interleukin receptor (UniProt P25024). Briefly: cell-based or functional assay.
The target in experiment [2] is active human CCR5 chemokine receptor (human) (UniProt P51681). Briefly: cell-based or functional assay.

For two substances, increase in metabolic activity (microphysiometer), EC50 of the acidification response (microphysiometer) and acidification rate results are on record in patent US20040161739A1.

Sequence of UniProt P51681 (P51681 whole entry): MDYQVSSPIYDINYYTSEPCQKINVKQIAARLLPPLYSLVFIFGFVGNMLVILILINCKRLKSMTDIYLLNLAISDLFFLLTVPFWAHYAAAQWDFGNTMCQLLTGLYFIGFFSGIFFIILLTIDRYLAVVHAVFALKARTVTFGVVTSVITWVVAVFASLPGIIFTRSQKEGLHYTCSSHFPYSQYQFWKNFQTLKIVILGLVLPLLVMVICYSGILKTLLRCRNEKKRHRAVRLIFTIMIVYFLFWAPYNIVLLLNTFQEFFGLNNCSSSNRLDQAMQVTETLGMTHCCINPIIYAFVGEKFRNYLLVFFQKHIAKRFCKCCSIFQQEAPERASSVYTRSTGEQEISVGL

In the case of “recombinant human IL-8 (Interleukin 8) (from UniProt P10145 28-99) (ligand)”, in experiment [1], the increase in metabolic activity (microphysiometer) came to 160%. In experiment [2], “recombinant human MIP-1α (Macrophage Inflammatory Protein 1 α) (from UniProt P10147 27-92) (ligand)” gave an EC50 of the acidification response (microphysiometer) of 3 nM and an acidification rate at 30 nM, percent of baseline level (% of baseline level) of 156.
